The target of test [1] is Serum samples collected at week 16 from patients immunized with UBI AD vaccine (UB-311). The test is described as follows: comp. ELISA, serum P103. (In general: ELISA stands for enzyme-linked immunosorbent assay.)
For test [2] the target is unchanged. The test is described as follows: comp. ELISA, serum P201.
Test [3] has as its target Immune sera of baboons immunized with UBI AD vaccine. The test is described as follows: competitive inhibition ELISA.
Test [4] has as its target Serum samples collected at week 16 from patients immunized with UBI AD vaccine (UB-311). Briefly: comp. ELISA, serum P104.
The target is the same in test [5]. The test is described as follows: comp. ELISA, serum P108.
The target is the same in test [6]. The test is described as follows: comp. ELISA, serum P106.
Test [7] has the same target. The test is described as follows: comp. ELISA, serum P202.
Test [8] has the same target. The test is described as follows: comp. ELISA, serum P208.
The target is the same in test [9]. The test is described as follows: comp. ELISA, serum P101.
For test [10] the target is unchanged. Briefly: comp. ELISA, serum P109.
For test [11] the target is unchanged. The test is described as follows: comp. ELISA, serum P102.
The target is the same in test [12]. Briefly: comp. ELISA, serum P204.
The target is the same in test [13]. The test is described as follows: comp. ELISA, serum P107.
Test [14] shares this target. Briefly: comp. ELISA, serum P209.
For test [15] the target is unchanged. Briefly: comp. ELISA, serum P206.
The target is the same in test [16]. The test is described as follows: comp. ELISA, serum P105.
The target is the same in test [17]. The test is described as follows: comp. ELISA, serum P207.
For test [18] the target is unchanged. The test is described as follows: comp. ELISA, serum P203.
For test [19] the target is unchanged. Briefly: comp. ELISA, serum P205.
The target is the same in test [20]. Briefly: comp. ELISA, serum P210.

As for EFRHDSGYEV [Aβ3-12 or APP 770 (E674-V683)], the IC50-based peak height in [1], in test [2], in [4], in test [5], in test [6] and in test [7] was 0 in each case. Besides, the IC50-based peak height in test [8], in [9], in test [10], in test [11], in test [12] and in test [13] was 0 throughout. The IC50-based peak height in test [14], in [15], in [16], in test [17], in [18] and in [19] was 0 each time. This molecule also returned an IC50-based peak height in [20] of 0. The molecule further displayed a % inhibition at 0 µg/mL in test [3] of 0%. In addition, the % inhibition at 0.25 µg/mL in [3] was determined as 1%. Also, in test [3], the % inhibition at 0.5 µg/mL came out at 1%. This molecule registered a % inhibition at 1 µg/mL in test [3] of 0%. Also, the % inhibition at 2 µg/mL in test [3] was 0%. Moreover, the % inhibition at 8 µg/mL in [3] came to 0%. In addition, the % inhibition at 32 µg/mL in test [3] came to 3%.

For AEFRHDSGYE [Aβ2-11 or APP 770 (A673-E682)], the IC50-based peak height is 0 in test [1]; 3 in [2]; 0 in test [4]; 0 in test [5]; 0 in [6]; 0 in [7]. The IC50-based peak height was determined as 0 in test [8]; 2 in [9]; 0 in [10]; 0 in [11]; 0 in test [12]; 0 in test [13]. For the same molecule, the IC50-based peak height in test [14], in test [15], in [16], in test [17], in test [18] and in [19] was 0 in each case. In addition, the IC50-based peak height in [20] came out at 0. This molecule gave a % inhibition at 0 µg/mL in [3] of 0%. In [3], the % inhibition at 0.25 µg/mL came out at 3%. In test [3], this molecule gave a % inhibition at 0.5 µg/mL of 0%. In [3], this molecule registered a % inhibition at 1 µg/mL of 0%. The % inhibition at 2 µg/mL in [3] stood at 0%. Also, in test [3], the % inhibition at 8 µg/mL was 6%. For the same molecule, the % inhibition at 32 µg/mL in [3] came to 19%.

With HQKLVFFAED [Aβ14-23 or APP 770 (H685-D694)], the IC50-based peak height in test [1], in [2], in [4], in test [5], in test [6] and in test [7] was 0 each time. The IC50-based peak height in [8], in [9], in test [10], in test [11], in [12] and in test [13] was 0 throughout. Besides, the IC50-based peak height in test [14], in [15], in [16], in [17], in test [18] and in test [19] was 0 in each case. This molecule had an IC50-based peak height in test [20] of 0.

Take QKLVFFAEDV [Aβ15-24 or APP 770 (Q686-V695)]: the IC50-based peak height in test [1], in test [2], in [4], in test [5], in test [6] and in test [7] was 0 throughout. Besides, the IC50-based peak height in [8], in test [9], in [10], in test [11], in test [12] and in test [13] was 0 throughout. Further, the IC50-based peak height in test [14], in test [15], in test [16], in [17], in test [18] and in [19] was 0 in each case. In addition, the IC50-based peak height in [20] amounted to 0.

For orientation: % inhibition means the percentage by which the read-out fell short of the control. The low end stands for little suppression, the high end for strong suppression.

For the origin of these results see US20190194280A1.
